Test results as given in EP4631959A2, “NOVEL MINIGASTRIN-DERIVED CHOLECYSTOKININ 2 RECEPTOR BINDING MOLECULES FOR IMAGING AND TARGETED RADIOTHERAPY” (priority 2022, dated 2024).
Read-outs that look alike come from different tables or passages of the source. Starred links: 1 amine or outer side, 2 acyl side, 3 side chain; linkers in the order of their positions; H or OH if unused. Non-standard residues stand in square brackets, D forms with d. Residues, ends and D or L forms follow the SMILES beside them. *: point of attachment. Benzoyl(4-SiFtBu2) = CC(C)(C)[Si](F)(c1ccc(C(=O)*)cc1)C(C)(C)C; X1 = CC(C)(C)[Si](F)(c1ccc(C[N+](C)(C)CC(=O)*)cc1)C(C)(C)C; DOTA = O=C(O)CN1CCN(CC(=O)O)CCN(CC(=O)*)CCN(CC(=O)O)CC1; d(γGlu) = O=C(O)[C@@H](CCC(=O)[*:2])N[*:1]; 1Nal = N[C@@H](Cc1cccc2ccccc12)C(=O)O; Hyp = O=C(O)[C@@H]1C[C@@H](O)CN1; dCit = NC(=O)NCCC[C@@H](N)C(=O)O; PEG5 = NCCOCCOCCOCCOCCOCCC(=O)O; NMeNle = CCCC[C@H](NC)C(=O)O; PEG4 = NCCOCCOCCOCCOCCC(=O)O; dDap = NC[C@@H](N)C(=O)O

How the values were obtained:
[1] = molecular target: T1, CCK-2R (Rattus norvegicus, UniProt P30553); experiment: Determination of IC50: CCK-2R affinity on AR4-2J cells, competition with [^177Lu]Lu-DOTA-PP-F11N; type: binding; details: AR4-2J cells
T1 construct: The CCK-2R expressing rat pancreatic tumor cells AR4-2J; host or cells: AR4-2J rat pancreatic tumor cells
T1 sequence (P30553 1-452): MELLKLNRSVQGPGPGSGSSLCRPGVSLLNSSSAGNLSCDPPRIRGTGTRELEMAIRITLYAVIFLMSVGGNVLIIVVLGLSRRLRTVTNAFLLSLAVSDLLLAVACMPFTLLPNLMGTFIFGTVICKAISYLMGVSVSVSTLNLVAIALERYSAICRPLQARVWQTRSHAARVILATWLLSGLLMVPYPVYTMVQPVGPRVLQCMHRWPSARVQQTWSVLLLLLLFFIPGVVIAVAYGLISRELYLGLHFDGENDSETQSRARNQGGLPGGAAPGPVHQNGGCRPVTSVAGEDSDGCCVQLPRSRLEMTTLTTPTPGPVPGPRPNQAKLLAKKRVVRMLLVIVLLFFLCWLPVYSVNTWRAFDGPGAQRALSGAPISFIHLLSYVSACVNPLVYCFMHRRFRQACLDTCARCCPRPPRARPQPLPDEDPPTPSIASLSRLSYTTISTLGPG
How it was run: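 Competitive displacement of 0.3 pmol/well [177Lu]Lu-DOTA-PP-F11N by compounds (10^-10 to 10^-4 M) on AR4-2J cells in BSA-supplemented medium, 3 h at 37 °C. Free label was collected from medium plus PBS rinse, and cell-bound label was recovered with 1 M NaOH, both measured by γ-counter. Each IC50 was determined twice, in triplicate.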

[2] = molecular target: T2, Human serum albumin (HSA) (Homo sapiens, UniProt P02768); experiment: Determination of HSA binding on a Chiralpak HSA column; type: in vitro ADME; details: Tab. 8; metal not stated (Fig. 18: ^natLu)
T2 construct: purchased Daicel, Tokyo, Japan H13H-2433
Method: Human serum albumin (HSA) binding of the CCK-2R-targeted compounds was determined as reported by Valko et al., using a Chiralpak HSA column (50 x 3 mm, 5 µm, H13H-2433, Daicel, Tokyo, Japan) at a constant flow rate of 0.5 mL/min at rt. Therefore, an aq. solution of NH4OAc (pH = 6.9, 50 mM) as mobile phase A and isopropanol as mobile phase B were freshly prepared. In order to calibrate the column prior to the experiments, the retention times of nine reference substances with a HSA binding in the range of 13 to 99% were determined using a gradient of 100% A (0 to 3 min), followed by 80% A (3 to 40 min). Furthermore, all substances tested, were dissolved in a mixture (1/1, v/v) of A and B reaching a final concentration of 0.5 mg/mL. The HSA binding of all rhCCK ligands tested, was determined using the same gradient as for the calibration probes. The non-linear regression of the calibration experiments and the CCK-2R ligands (Fig. 29) was established using the OriginPro 2016G software (Northampton, United States).

[3] = n-Octanol-PBS distribution coefficient (logD7.4); type: physicochemical; details: pH = 7.4, ^177Lu-labeled
Method: Approximately 1 MBq of the labeled tracer was dissolved in 1 mL of a 1/1 mixture (v/v) of phosphate buffered saline (PBS, pH = 7.4) and n-octanol in an Eppendorf tube (1.5 mL). After vigorous mixing of the suspension for 3 min at rt, the vial was centrifuged at 9,000 rpm for 5 min (Biofuge 15, Heraeus Sepatech, Osterode, Germany) and 200 µL aliquots of both layers were measured in a γ-counter. The experiment was repeated at least five times.

[4] = read-out: IC50 [nM] (n = 3), ^natLu-labeled, ^natLu-labeled
[5] = ^natLu-labeled, read-out: IC50 [nM] (n = 3), ^natLu-labeled

T2 sequence (P02768 25-609): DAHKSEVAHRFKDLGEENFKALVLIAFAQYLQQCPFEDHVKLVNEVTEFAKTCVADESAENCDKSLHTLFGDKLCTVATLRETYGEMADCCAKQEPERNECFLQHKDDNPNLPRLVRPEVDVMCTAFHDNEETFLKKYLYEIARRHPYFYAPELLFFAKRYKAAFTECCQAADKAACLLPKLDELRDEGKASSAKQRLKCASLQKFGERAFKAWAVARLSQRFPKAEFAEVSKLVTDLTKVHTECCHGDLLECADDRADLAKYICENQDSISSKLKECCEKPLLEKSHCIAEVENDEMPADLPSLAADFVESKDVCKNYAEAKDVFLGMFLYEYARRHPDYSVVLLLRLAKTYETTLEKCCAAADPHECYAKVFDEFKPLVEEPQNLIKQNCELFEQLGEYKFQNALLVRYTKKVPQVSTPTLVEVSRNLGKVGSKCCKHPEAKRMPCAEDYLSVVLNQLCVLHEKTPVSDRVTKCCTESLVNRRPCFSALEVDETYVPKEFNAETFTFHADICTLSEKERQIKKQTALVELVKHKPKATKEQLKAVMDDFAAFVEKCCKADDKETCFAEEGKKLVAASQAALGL

Structure (SMILES): CCCC[C@@H](C(=O)N[C@@H](CC(=O)O)C(=O)N[C@@H](Cc1cccc2ccccc12)C(N)=O)N(C)C(=O)[C@H](Cc1c[nH]c2ccccc12)NC(=O)CCOCCOCCOCCOCCNC(=O)CC[C@@H](NC(=O)[C@@H]1C[C@@H](O)CN1C(=O)[C@@H]1C[C@@H](O)CN1C(=O)[C@@H]1C[C@@H](O)CN1C(=O)CC[C@@H](NC(=O)[C@@H](CNC(=O)c1ccc([Si](F)(C(C)(C)C)C(C)(C)C)cc1)NC(=O)CN1CCN(CC(=O)O)CCN(CC(=O)O)CCN(CC(=O)O)CC1)C(=O)O)C(=O)O [DOTA-rhCCK-83, DOTA-dap(SiFA)-γ-glu-(Hyp)3-γ-glu-(PEG)3-Trp-(N-Me)Nle-Asp-1-Nal-NH2] ({DOTA}-[dDap](Benzoyl(4-SiFtBu2))[d(γGlu)][Hyp][Hyp][Hyp][d(γGlu)][PEG4]W[NMeNle]D[1Nal]-NH2)
- IC50 [1, 4]: 10 ± 0.9 nM
- HSA binding [%] [2]: 93.4%
- logD7.4 (n ≥ 5), ^177Lu-labeled [3]: −1.50 ± 0.05

Structure (SMILES): CCCC[C@@H](C(=O)N[C@@H](CC(=O)O)C(=O)N[C@@H](Cc1cccc2ccccc12)C(N)=O)N(C)C(=O)[C@H](Cc1c[nH]c2ccccc12)NC(=O)CCOCCOCCOCCOCCNC(=O)CC[C@@H](NC(=O)[C@@H]1C[C@@H](O)CN1C(=O)[C@@H]1C[C@@H](O)CN1C(=O)[C@@H]1C[C@@H](O)CN1C(=O)[C@@H](CCCNC(N)=O)NC(=O)[C@@H](CCCNC(N)=O)NC(=O)[C@@H](CCCNC(N)=O)NC(=O)CC[C@@H](NC(=O)[C@@H](CNC(=O)c1ccc([Si](F)(C(C)(C)C)C(C)(C)C)cc1)NC(=O)CN1CCN(CC(=O)O)CCN(CC(=O)O)CCN(CC(=O)O)CC1)C(=O)O)C(=O)O [DOTA-rhCCK-85, DOTA-dap(SiFA)-γ-glu-(cit)3-(Hyp)3-γ-glu-(PEG)3-Trp-(N-Me)Nle-Asp-1-Nal-NH2] ({DOTA}-[dDap](Benzoyl(4-SiFtBu2))[d(γGlu)][dCit][dCit][dCit][Hyp][Hyp][Hyp][d(γGlu)][PEG4]W[NMeNle]D[1Nal]-NH2)
- IC50 [1, 4]: 12.9 ± 0.3 nM
- HSA binding [%] [2]: 90.3%
- logD7.4 (n ≥ 5), ^177Lu-labeled [3]: −1.95 ± 0.09

Structure (SMILES): CCCC[C@@H](C(=O)N[C@@H](CC(=O)O)C(=O)N[C@@H](Cc1cccc2ccccc12)C(N)=O)N(C)C(=O)[C@H](Cc1c[nH]c2ccccc12)NC(=O)CCOCCOCCOCCOCCNC(=O)CC[C@@H](NC(=O)[C@@H]1C[C@@H](O)CN1C(=O)[C@@H]1C[C@@H](O)CN1C(=O)[C@@H]1C[C@@H](O)CN1C(=O)[C@@H]1C[C@@H](O)CN1C(=O)[C@@H]1C[C@@H](O)CN1C(=O)[C@@H]1C[C@@H](O)CN1C(=O)[C@@H]1C[C@@H](O)CN1C(=O)[C@@H]1C[C@@H](O)CN1C(=O)CC[C@@H](NC(=O)[C@@H](CNC(=O)c1ccc([Si](F)(C(C)(C)C)C(C)(C)C)cc1)NC(=O)CN1CCN(CC(=O)O)CCN(CC(=O)O)CCN(CC(=O)O)CC1)C(=O)O)C(=O)O [DOTA-rhCCK-86, DOTA-dap(SiFA)-γ-glu-(Hyp)8-γ-glu-(PEG)3-Trp-(N-Me)Nle-Asp-1-Nal-NH2] ({DOTA}-[dDap](Benzoyl(4-SiFtBu2))[d(γGlu)][Hyp][Hyp][Hyp][Hyp][Hyp][Hyp][Hyp][Hyp][d(γGlu)][PEG4]W[NMeNle]D[1Nal]-NH2)
- IC50 [1, 4]: 10 ± 1.4 nM
- HSA binding [%] [2]: 88.1%
- logD7.4 (n ≥ 5), ^177Lu-labeled [3]: −1.86 ± 0.06

Structure (SMILES): CCCC[C@@H](C(=O)N[C@@H](CC(=O)O)C(=O)N[C@@H](Cc1cccc2ccccc12)C(N)=O)N(C)C(=O)[C@H](Cc1c[nH]c2ccccc12)NC(=O)CCOCCOCCOCCOCCNC(=O)CC[C@@H](NC(=O)CCOCCOCCOCCOCCOCCNC(=O)[C@@H](CNC(=O)C[N+](C)(C)Cc1ccc([Si](F)(C(C)(C)C)C(C)(C)C)cc1)NC(=O)CN1CCN(CC(=O)O)CCN(CC(=O)O)CCN(CC(=O)O)CC1)C(=O)O [DOTA-rhCCK-90, DOTA-dap(SiFAlin)-(PEG)4-γ-glu-(PEG)3-Trp-(N-Me)Nle-Asp-1-Nal-NH2] ({DOTA}-[dDap](X1)[PEG5][d(γGlu)][PEG4]W[NMeNle]D[1Nal]-NH2)
- IC50 [1, 5]: 9.85 ± 1 nM
- HSA binding [%] [2]: 94.5%
- logD7.4 (n ≥ 5), ^177Lu-labeled [3]: −0.76 ± 0.09

Structure (SMILES): CCCC[C@@H](C(=O)N[C@@H](CC(=O)O)C(=O)N[C@@H](Cc1cccc2ccccc12)C(N)=O)N(C)C(=O)[C@H](Cc1c[nH]c2ccccc12)NC(=O)CCOCCOCCOCCOCCNC(=O)CC[C@@H](NC(=O)CCOCCOCCOCCOCCOCCNC(=O)CC[C@@H](NC(=O)[C@@H](CNC(=O)C[N+](C)(C)Cc1ccc([Si](F)(C(C)(C)C)C(C)(C)C)cc1)NC(=O)CN1CCN(CC(=O)O)CCN(CC(=O)O)CCN(CC(=O)O)CC1)C(=O)O)C(=O)O [DOTA-rhCCK-91, DOTA-dap(SiFAlin)-γ-glu-(PEG)4-γ-glu-(PEG)3-Trp-(N-Me)Nle-Asp-1-Nal-NH2]
- IC50 [1, 5]: 8.56 ± 0.7 nM
- IC50 ([1]; read-out: IC50 [nM] (n = 3), ^natGa-labeled, ^natGa-labeled): 8.24 ± 1.6 nM
- HSA binding [%] [2]: 90.0%
- logD7.4 (n ≥ 5), ^177Lu-labeled [3]: −1.66 ± 0.08
